In PMC3691886 one finds k (app,fr) (apparent rate of polymerization) data, which are given here for 1 substance.

The target of assay [1] is α1-antitrypsin reactive loop mutant P14P12 (T345D, A347D) on the C232S background (UniProt P01009). Put plainly: FRET or BRET; heat-induced polymerization at 50°C; 0.1 mg/ml protein in 10 mM Na2HPO4/NaH2PO4, 0.1 M NaCl, 0.1% PEG8K, pH 7.4; 2-8 μM ATTO-550-Ni-NTA and ATTO-647N-Ni-NTA on the His tag; apparent rate, corrected to zero dye; monomer to polymer.
Assay [2] has the same target. Put plainly: FRET or BRET; heat-induced polymerization at 60°C; 0.1 mg/ml protein in 10 mM Na2HPO4/NaH2PO4, 0.1 M NaCl, 0.1% PEG8K, pH 7.4; 2-8 μM ATTO-550-Ni-NTA and ATTO-647N-Ni-NTA on the His tag; apparent rate, corrected to zero dye; monomer to polymer.
The target is the same in assay [3]. Put plainly: FRET or BRET; heat-induced polymerization at 55°C; 0.1 mg/ml protein in 10 mM Na2HPO4/NaH2PO4, 0.1 M NaCl, 0.1% PEG8K, pH 7.4; 2-8 μM ATTO-550-Ni-NTA and ATTO-647N-Ni-NTA on the His tag; apparent rate, corrected to zero dye; monomer to polymer.

Turning to “α1-antitrypsin reactive loop mutant P14P12 (T345D, A347D) on the C232S background (from UniProt P01009 26-418) (natural protein)”, the k (app,fr) (apparent rate of polymerization) was determined as 5.8e-05 s⁻¹ in assay [1], 0.024 s⁻¹ in assay [2] and 0.00043 s⁻¹ in assay [3].
